Laboratory results from patent publication US20210024646A1 (published 2021).

T1: extracellular domain of human CD73 protein (CD73-ECD), C-terminus polyhistidine-tagged (UniProt P21589 27-547)
T1 chain: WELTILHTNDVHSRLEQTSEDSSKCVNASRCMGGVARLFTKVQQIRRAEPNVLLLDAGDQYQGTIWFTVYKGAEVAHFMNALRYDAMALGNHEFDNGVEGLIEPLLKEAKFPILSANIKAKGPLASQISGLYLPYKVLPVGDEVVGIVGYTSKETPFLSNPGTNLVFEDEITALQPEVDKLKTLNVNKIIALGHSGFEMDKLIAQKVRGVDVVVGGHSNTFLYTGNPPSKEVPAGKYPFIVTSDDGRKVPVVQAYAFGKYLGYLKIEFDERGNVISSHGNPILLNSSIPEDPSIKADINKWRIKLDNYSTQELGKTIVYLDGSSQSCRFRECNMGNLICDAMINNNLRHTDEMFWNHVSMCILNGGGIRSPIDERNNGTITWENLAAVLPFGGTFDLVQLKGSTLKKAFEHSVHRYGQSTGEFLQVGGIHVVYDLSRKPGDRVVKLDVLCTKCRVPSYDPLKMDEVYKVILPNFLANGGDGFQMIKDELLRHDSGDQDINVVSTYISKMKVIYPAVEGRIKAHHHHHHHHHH

T2: Carbon-terminal polyhistidine-labeled recombinant cynomolgus monkey CD73 enzyme (cynomolgus monkey, UniProt A0A2K5V5U7 1-547)
T2 chain: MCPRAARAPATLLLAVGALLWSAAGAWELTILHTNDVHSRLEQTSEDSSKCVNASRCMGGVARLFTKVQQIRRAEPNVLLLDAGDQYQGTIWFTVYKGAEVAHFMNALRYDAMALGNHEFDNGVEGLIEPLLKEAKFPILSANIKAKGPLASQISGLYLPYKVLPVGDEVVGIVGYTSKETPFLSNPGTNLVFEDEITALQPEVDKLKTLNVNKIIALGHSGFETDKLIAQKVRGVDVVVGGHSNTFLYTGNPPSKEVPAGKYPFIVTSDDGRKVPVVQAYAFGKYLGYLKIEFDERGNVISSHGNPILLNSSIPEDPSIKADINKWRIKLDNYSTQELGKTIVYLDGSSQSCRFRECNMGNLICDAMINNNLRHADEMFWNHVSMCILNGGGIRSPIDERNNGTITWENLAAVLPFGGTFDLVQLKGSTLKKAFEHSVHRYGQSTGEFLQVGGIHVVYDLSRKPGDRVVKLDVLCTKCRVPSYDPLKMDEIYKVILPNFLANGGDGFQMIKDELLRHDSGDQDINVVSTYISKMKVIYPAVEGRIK

T3: CD73 on the surface of human tumor cells (human, UniProt P21589 27-549)
T3 chain: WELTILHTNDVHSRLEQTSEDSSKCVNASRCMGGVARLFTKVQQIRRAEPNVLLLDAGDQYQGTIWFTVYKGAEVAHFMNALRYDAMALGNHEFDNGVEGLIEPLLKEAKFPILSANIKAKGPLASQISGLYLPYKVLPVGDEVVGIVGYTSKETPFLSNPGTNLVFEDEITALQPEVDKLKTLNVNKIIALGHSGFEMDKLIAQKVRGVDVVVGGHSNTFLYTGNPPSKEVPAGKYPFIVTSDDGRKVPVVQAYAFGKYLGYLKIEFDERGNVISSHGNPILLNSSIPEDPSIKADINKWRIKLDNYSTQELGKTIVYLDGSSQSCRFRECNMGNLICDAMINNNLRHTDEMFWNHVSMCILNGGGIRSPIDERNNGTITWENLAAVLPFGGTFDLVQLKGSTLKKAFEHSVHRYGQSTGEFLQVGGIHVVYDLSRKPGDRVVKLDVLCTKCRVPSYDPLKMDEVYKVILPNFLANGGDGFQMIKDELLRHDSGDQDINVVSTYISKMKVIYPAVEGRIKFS


What was measured:
[1] = target: T1, extracellular domain of human CD73 …; assay: ELISA
[2] = target: T1, extracellular domain of human CD73 …; assay: enzyme inhibition; right table
[3] = target: T2, Carbon-terminal polyhistidine-labeled …; assay: enzyme inhibition; right table
[4] = target: T3, CD73 on the surface of human tumor cells; assay: FACS; NCI-H1299 cells, right table
[5] = target: T3, CD73 on the surface of human tumor cells; assay: FACS; MDA-MB-231 cells, right table
[6] = target: T3, CD73 on the surface of human tumor cells; assay: inhibition of cell-surface CD73 enzyme activity; right panel
[7] = target: T1, extracellular domain of human CD73 …; assay: enzyme inhibition; left table
[8] = target: T2, Carbon-terminal polyhistidine-labeled …; assay: enzyme inhibition; left table
[9] = target: T3, CD73 on the surface of human tumor cells; assay: FACS; NCI-H1299 cells, left table
[10] = target: T3, CD73 on the surface of human tumor cells; assay: FACS; MDA-MB-231 cells, left table
[11] = target: T3, CD73 on the surface of human tumor cells; assay: inhibition of cell-surface CD73 enzyme activity; left panel

Binder	EC50 [1]	IC50 [2]	IC50 [3]	EC50 [4]	EC50 [5]	IC50 [6]	IC50 [7]	IC50 [8]	EC50 [9]	EC50 [10]	IC50 [11]
Hu002c-16 (antibody, V domains shown) VH: QVQLVQSGAEVKKPGASVKVSCKASGYTLTSYWMHWVKKAPGQGLEWIGEINPSQGRSNYNEKFKSKVTLTVDRSTSTVYMELSSLRSEDTAVYYCARRGVSGNYFDYWGQGTLVTVSS VL: DIQMTQSPSSLSASVGDRVTITCKASQDINTYLSWFQQKPGKSPKSLIYRSNILVSGVPSRFSGSGSGQDYTLTISSLQPEDFAIYYCLQYDEFPYTFGGGTKLEI	0.099 nM	0.068 nM	0.072 nM	0.86 nM	0.632 nM	0.327 nM	–	–	–	–	–
Hu002c-8 (antibody, V domains shown) VH: QVQLVQSGAEVKKPGASVKVSCKASGYTLTSYWMHWVRQAPGQGLEWIGEINPSQGRSNYNEKFKSRVTLTVDRSTSTVYMELSSLRSEDTAVYYCARRGVSGNYFDYWGQGTLVTVSS VL: DIQMTQSPSSLSASVGDRVTITCKASQDINTYLSWFQQKPGKSPKSLIYRSNILVSGVPSRFSGSGSGQDYTLTISSLQPEDFAIYYCLQYDEFPYTFGGGTKLEI	0.107 nM	–	–	–	–	–	0.025 nM	0.041 nM	0.91 nM	0.662 nM	0.223 nM
Hu002c-2 (antibody, V domains shown) VH: QVQLVQSGAEVKKPGASVKVSCKASGYTLTSYWMHWVRQAPGQGLEWMGEINPSQGRSNYNEKFKSRVTMTRDTSTSTVYMELSSLRSEDTAVYYCARRGVSGNYFDYWGQGTLVTVSS VL: DIQMTQSPSSLSASVGDRVTITCKASQDINTYLSWFQQKPGKAPKSLIYRSNILVSGVPSRFSGSGSGQDYTLTISSLQPEDFATYYCLQYDEFPYTFGQGTKLEIK	0.131 nM	–	–	–	–	–	0.042 nM	0.043 nM	0.874 nM	0.666 nM	0.478 nM
Hu001c-15 (antibody, V domains shown) VH: QVQLVQSGAEVKKPGASVKVSCKTSGYTFTNYYIYWVRQAPGQRLEWMGWIYPGNLNIKYNEKFKGRVTITADTSASTAYMELSSLRSEDTAVYYCARDDNYAWFAYWGQGTLVTVSS VL: DIQMTQSPSSLSASVGDRVTITCKASQDVSTAVAWYQQKPGKSPKLLIYWTNTRHTGVPSRFSGSGSGTDHTLTISSLQPEDFATYYCQQHYSTPFTFGQGTKLEIK	0.115 nM	0.02 nM	0.05 nM	–	–	–	0.04 nM	0.1 nM	–	–	–
Hu002c-3 (antibody, V domains shown) VH: QVQLVQSGAEVKKPGASVKVSCKASGYTLTSYWMHWVRQAPGQGLEWMGEINPSQGRSNYNEKFKSRVTMTRDTSTSTVYMELSSLRSEDTAVYYCARRGVSGNYFDYWGQGTLVTVSS VL: DIQMTQSPSSLSASVGDRVTITCKASQDINTYLSWFQQKPGKSPKSLIYRSNILVSGVPSRFSGSGSGQDYTLTISSLQPEDFATYYCLQYDEFPYTFGGGTKLEIK	0.089 nM	–	–	–	–	–	0.036 nM	0.046 nM	0.902 nM	0.743 nM	0.535 nM
Hu002c-6 (antibody, V domains shown) VH: QVQLVQSGAEVKKPGASVKVSCKASGYTLTSYWMHWVRQAPGQGLEWIGEINPSQGRSNYNEKFKSRVTLTVDRSTSTVYMELSSLRSEDTAVYYCARRGVSGNYFDYWGQGTLVTVSS VL: DIQMTQSPSSLSASVGDRVTITCKASQDINTYLSWFQQKPGKAPKSLIYRSNILVSGVPSRFSGSGSGQDYTLTISSLQPEDFATYYCLQYDEFPYTFGQGTKLEIK	0.091 nM	–	–	–	–	–	0.064 nM	0.055 nM	0.836 nM	0.69 nM	0.41 nM
Hu002c-15 (antibody, V domains shown) VH: QVQLVQSGAEVKKPGASVKVSCKASGYTLTSYWMHWVKKAPGQGLEWIGEINPSQGRSNYNEKFKSKVTLTVDRSTSTVYMELSSLRSEDTAVYYCARRGVSGNYFDYWGQGTLVTVSS VL: DIQMTQSPSSLSASVGDRVTITCKASQDINTYLSWFQQKPGKSPKSLIYRSNILVSGVPSRFSGSGSGQDYTLTISSLQPEDFATYYCLQYDEFPYTFGGGTKLEIK	0.104 nM	0.075 nM	0.074 nM	0.804 nM	0.717 nM	0.591 nM	–	–	–	–	–
Hu002c-4 (antibody, V domains shown) VH: QVQLVQSGAEVKKPGASVKVSCKASGYTLTSYWMHWVRQAPGQGLEWMGEINPSQGRSNYNEKFKSRVTMTRDTSTSTVYMELSSLRSEDTAVYYCARRGVSGNYFDYWGQGTLVTVSS VL: DIQMTQSPSSLSASVGDRVTITCKASQDINTYLSWFQQKPGKSPKSLIYRSNILVSGVPSRFSGSGSGQDYTLTISSLQPEDFAIYYCLQYDEFPYTFGGGTKLEI	0.106 nM	–	–	–	–	–	0.049 nM	0.047 nM	0.873 nM	0.696 nM	0.33 nM
Hu002c-10 (antibody, V domains shown) VH: QVQLVQSGAEVKKPGASVKVSCKASGYTLTSYWMHWVRQAPGQGLEWIGEINPSQGRSNYNEKFKSKVTLTVDRSTSTVYMELSSLRSEDTAVYYCARRGVSGNYFDYWGQGTLVTVSS VL: DIQMTQSPSSLSASVGDRVTITCKASQDINTYLSWFQQKPGKAPKSLIYRSNILVSGVPSRFSGSGSGQDYTLTISSLQPEDFATYYCLQYDEFPYTFGQGTKLEIK	0.093 nM	0.059 nM	0.059 nM	0.758 nM	0.702 nM	0.441 nM	–	–	–	–	–
Hu002c-7 (antibody, V domains shown) VH: QVQLVQSGAEVKKPGASVKVSCKASGYTLTSYWMHWVRQAPGQGLEWIGEINPSQGRSNYNEKFKSRVTLTVDRSTSTVYMELSSLRSEDTAVYYCARRGVSGNYFDYWGQGTLVTVSS VL: DIQMTQSPSSLSASVGDRVTITCKASQDINTYLSWFQQKPGKSPKSLIYRSNILVSGVPSRFSGSGSGQDYTLTISSLQPEDFATYYCLQYDEFPYTFGGGTKLEIK	0.098 nM	–	–	–	–	–	0.028 nM	0.052 nM	0.829 nM	0.659 nM	0.279 nM
